According to patent US20080050387A1 (published 2008):

B1: AR N-terminus, full length ARN (ARN1-556) (receptor)
chain: MEVQLGLGRVYPRPPSKTYRGAFQNLFQSVREVIQNPGPRHPEAASAAPPGASLLLLQQQQQQQQQQQQQQQQQQQQQETSPRQQQQQQGEDGSPQAHRRGPTGYLVLDEEQQPSQPQSALECHPERGCVPEPGAAVAASKGLPQQLPAPPDEDDSAAPSTLSLLGPTFPGLSSCSADLKDILSEASTMQLLQQQQQEAVSEGSSSGRAREASGAPTSSKDNYLGGTSTISDNAKELCKAVSVSMGLGVEALEHLSPGEQLRGDCMYAPLLGVPPAVRPTPCAPLAECKGSLLDDSAGKSTEDTAEYSPFKGGYTKGLEGESLGCSGSAAAGSSGTLELPSTLSLYKSGALDEAAAYQSRDYYNFPLALAGPPPPPPPPHPHARIKLENPLDYGSAWAAAAAQCRYGDLASLHGAGAAGPGSGSPSAAASSSWHTLFTAEEGQLYGPCGGGGGGGGGGGGGGGGGGGGGGGGEAGAVAPYGYTRPPQGLAGQESDFTAPDVWYPGGMVSRVPYPSPTCVKSEMGPWMDSYSGPYGDMRLETARDHVLPIDYYFPPQ
B2: ARA67/PAT1, full length (585 amino acids) (other)
chain: MAAVELEWIPETLYNTAISAVVDNYIRSRRDIRSLPENIQFDVYYKLYQQGRLCQLGSEFCELEVFAKVLRALDKRHLLHHCFQALMDHGVKVASVLAYSFSRRCSYIAESDAAVKEKAIQVGFVLGGFLSDAGWYSDAEKVFLSCLQLCTLHDEMLHWFRAVECCVRLLHVRNGNCKYHLGEETFKLAQTYMDKLSKHGQQANKAALYGELCALLFAKSHYDEAYKWCIEAMKEITAGLPVKVVVDVLRQASKACVVKREFKKAEQLIKHAVYLARDHFGSKHPKYSDTLLDYGFYLLNVDNICQSVAIYQAALDIRQSVFGGKNIHVATAHEDLAYSSYVHQYSSGKFDNALFHAERAIGIITHILPEDHLLLASSKRVKALILEEIAIDCHNKETEQRLLQEAHDLHLSSLQLAKKAFGEFNVQTAKHYGNLGRLYQSMRKFKEAEEMHIKAIQIKEQLLGQEDYEVALSVGHLASLYNYDMNQYENAEKLYLRSIAIGKKLFGEGYSGLEYDYRGLIKLYNSIGNYEKVFEYHNVLSNWNRLRDRQYSVTDALEDVSTSPQSTEEVVQSFLISQNVEGPSC
notes: Used as GST-ARA67 on beads, as [35S]methionine-labeled ARA67, as GAL4 DBD fusion (pM-ARA67) and as HA-ARA67 (pKH3) in COS-1 cells; also called ARA671-585; GST-ARA67

Key:
[1] = biological target: B2; assay: mammalian two-hybrid in H1299 cells, pM-ARA67 + pVP16-ARN, pG5-Luc
[2] = biological target: T1, androgen receptor (AR), full length (human, UniProt P10275 1-920); assay: GST pull-down: GST-ARA67 with 35S-labeled AR, with or without 10 uM DHT
T1 construct: also called AR-FL; pCMV-AR
T1 sequence: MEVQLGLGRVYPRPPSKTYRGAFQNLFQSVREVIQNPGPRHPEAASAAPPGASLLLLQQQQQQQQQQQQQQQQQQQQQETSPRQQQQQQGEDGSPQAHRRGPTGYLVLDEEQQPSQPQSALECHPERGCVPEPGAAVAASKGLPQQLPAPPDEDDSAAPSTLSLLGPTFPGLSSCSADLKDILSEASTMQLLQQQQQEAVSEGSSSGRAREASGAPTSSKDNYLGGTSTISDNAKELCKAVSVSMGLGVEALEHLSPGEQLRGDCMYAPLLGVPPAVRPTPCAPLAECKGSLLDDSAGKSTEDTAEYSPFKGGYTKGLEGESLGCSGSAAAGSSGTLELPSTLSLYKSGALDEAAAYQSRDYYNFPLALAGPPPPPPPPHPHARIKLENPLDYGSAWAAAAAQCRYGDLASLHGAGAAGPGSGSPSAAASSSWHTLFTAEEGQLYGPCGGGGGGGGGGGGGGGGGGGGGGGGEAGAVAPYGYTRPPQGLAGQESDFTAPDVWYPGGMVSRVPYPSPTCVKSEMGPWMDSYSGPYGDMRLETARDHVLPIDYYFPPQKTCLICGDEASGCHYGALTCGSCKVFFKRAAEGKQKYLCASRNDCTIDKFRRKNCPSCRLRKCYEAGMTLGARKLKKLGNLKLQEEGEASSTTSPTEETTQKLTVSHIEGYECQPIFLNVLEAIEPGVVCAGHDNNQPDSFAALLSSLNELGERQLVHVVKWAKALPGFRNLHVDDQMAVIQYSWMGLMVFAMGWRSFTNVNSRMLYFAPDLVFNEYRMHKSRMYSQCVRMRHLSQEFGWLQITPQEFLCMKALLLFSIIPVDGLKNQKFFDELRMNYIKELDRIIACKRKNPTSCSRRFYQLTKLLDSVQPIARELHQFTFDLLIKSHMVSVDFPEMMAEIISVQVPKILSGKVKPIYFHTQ
Protocol: Pulled-down proteins were separated on SDS-PAGE and visualized by autoradiography. […] After transfection cells were treated with or without 10 nM DHT for 24 h before harvesting. 500 μg total cell lysate proteins from each samples were immunoprecipitated with anti-AR antibody for Western blot analysis with anti-AR and anti-HA antibody (Roche).
The immunoprecipitates were analyzed by Western blotting.

[3] = biological target: B1; assay: GST pull-down: GST-ARA67 fragments with 35S-labeled ARN
[4] = biological target: T2, VP16-AR containing the residues 37 to 919 (human, UniProt P10275 37-920); assay: mammalian two-hybrid in PC-3 cells, GAL4 DBD-hRad9 constructs + VP16-AR, 10 nM DHT
T2 construct: also called pCMX-VP16-AR; full length AR fused to VP16
T2 sequence: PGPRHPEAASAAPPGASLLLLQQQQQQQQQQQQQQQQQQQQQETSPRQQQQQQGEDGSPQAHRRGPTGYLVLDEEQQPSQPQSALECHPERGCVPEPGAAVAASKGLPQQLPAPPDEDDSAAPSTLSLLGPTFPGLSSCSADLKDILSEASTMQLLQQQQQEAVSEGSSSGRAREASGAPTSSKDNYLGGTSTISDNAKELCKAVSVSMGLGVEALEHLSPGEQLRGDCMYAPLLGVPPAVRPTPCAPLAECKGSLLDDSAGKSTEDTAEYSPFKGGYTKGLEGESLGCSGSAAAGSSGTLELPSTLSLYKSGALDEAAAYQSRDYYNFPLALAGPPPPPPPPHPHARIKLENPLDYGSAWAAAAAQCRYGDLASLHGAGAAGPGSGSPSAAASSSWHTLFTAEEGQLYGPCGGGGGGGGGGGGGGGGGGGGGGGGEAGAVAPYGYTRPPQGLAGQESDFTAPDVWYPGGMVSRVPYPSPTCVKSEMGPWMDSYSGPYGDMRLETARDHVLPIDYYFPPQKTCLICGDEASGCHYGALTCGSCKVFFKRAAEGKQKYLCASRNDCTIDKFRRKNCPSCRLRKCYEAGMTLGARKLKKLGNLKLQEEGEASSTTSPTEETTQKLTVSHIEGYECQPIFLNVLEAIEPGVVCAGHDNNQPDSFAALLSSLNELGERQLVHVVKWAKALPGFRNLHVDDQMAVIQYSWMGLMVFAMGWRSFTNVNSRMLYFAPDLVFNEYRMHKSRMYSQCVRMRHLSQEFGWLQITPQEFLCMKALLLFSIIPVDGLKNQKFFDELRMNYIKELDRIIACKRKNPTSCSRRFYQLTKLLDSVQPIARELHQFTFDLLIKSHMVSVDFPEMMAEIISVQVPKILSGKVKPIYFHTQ

AR DBD-LBD = biological target: T3, AR DBD-LBD (human, UniProt P10275 557-920); assay: yeast two-hybrid, liquid β-gal assay, bait GAL4 DBD-AR-DBD-LBD
T3 construct: also called GAL4-DBD-AR-DBD-LBD; GAL4-AR-DBD-LBD
T3 sequence: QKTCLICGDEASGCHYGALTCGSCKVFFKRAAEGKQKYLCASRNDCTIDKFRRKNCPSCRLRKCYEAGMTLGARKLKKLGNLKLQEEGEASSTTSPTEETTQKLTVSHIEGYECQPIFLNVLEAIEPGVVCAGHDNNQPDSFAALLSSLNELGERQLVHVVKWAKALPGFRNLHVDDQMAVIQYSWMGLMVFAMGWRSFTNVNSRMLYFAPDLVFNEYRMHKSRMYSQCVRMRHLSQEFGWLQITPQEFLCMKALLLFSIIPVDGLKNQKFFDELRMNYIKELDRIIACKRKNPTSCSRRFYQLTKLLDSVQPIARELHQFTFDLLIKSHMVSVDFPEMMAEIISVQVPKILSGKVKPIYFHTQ
Protocol: Liquid β-gal assay was performed as described previously.
In order to screen proteins with ligand-dependent interaction with AR, the human AR DBD-LBD was fused with the DBD of GAL4 functioned as bait in yeast two-hybrid screening (FIG. 23A). A pretransformed normal human ovary cDNA library was screened in the presence of 10 nM DHT.

[5] = biological target: T2, VP16-AR containing the residues 37 to …; assay: mammalian two-hybrid in PC-3 cells, GAL4 DBD-N-hRad9 + VP16-AR, 10 nM DHT

## B1
[1]
  binding result: binds

## B2
[2]
  binding result: binds

B3: ARA67 8-140 (other)
chain: WIPETLYNTAISAVVDNYIRSRRDIRSLPENIQFDVYYKLYQQGRLCQLGSEFCELEVFAKVLRALDKRHLLHHCFQALMDHGVKVASVLAYSFSRRCSYIAESDAAVKEKAIQVGFVLGGFLSDAGWYSDAE
notes: GST fusion on beads
[3]
  binding result: binds

B4: ARA67 281-550 (other)
chain: GSKHPKYSDTLLDYGFYLLNVDNICQSVAIYQAALDIRQSVFGGKNIHVATAHEDLAYSSYVHQYSSGKFDNALFHAERAIGIITHILPEDHLLLASSKRVKALILEEIAIDCHNKETEQRLLQEAHDLHLSSLQLAKKAFGEFNVQTAKHYGNLGRLYQSMRKFKEAEEMHIKAIQIKEQLLGQEDYEVALSVGHLASLYNYDMNQYENAEKLYLRSIAIGKKLFGEGYSGLEYDYRGLIKLYNSIGNYEKVFEYHNVLSNWNRLRDRQ
notes: GST fusion on beads
[3]
  binding result: binds

B5: C-terminus of hRad9 (aa 269-391) (other)
chain: DSHSQDLGSPERHQPVPQLQAHSTPHPDDFANDDIDSYMIAMETTIGNEGSRVLPSISLSPGPQPPKSPGPHSEEEDEAEPSTVPGTPPPKKFRSLFFGSILAPVRSPQGPSPVLAEDSEGEG
notes: GAL4 DBD fusion (pM) in the two-hybrid assay; Flag-tagged (pCDNA3-Flag) in the AR N/C assay; also called C-hRad9; hRad9 C-terminus
[4]
  binding result: binds

B6: GAL4 activation domain alone (other, UniProt P04386 768-881, looked up)
chain: ANFNQSGNIADSSLSFTFTNSSNGPNLITTQTNSQALSQPIASSNVHDNFMNNEITASKIDDGNNSKPLSPGWTDQTAYNAFGITTGMFNTTTMDDVYNYLFDDEDTPPNPKKE
notes: Negative control; also called GAL4-AD
AR DBD-LBD
  binding result: no binding

B7: PCNA-like domain of hRad9 (N-hRad9, aa 1-270) (other)
chain: MKCLVTGGNVKVLGKAVHSLSRIGDELYLEPLEDGLSLRTVNSSRSAYACFLFAPLFFQQYQAATPGQDLLRCKILMKSFLSVFRSLAMLEKTVEKCCISLNGRSSRLVVQLHCKFGVRKTHNLSFQDCESLQAVFDPASCPHMLRAPARVLGEAVLPFSPALAEVTLGIGRGRRVILRSYHEEEADSTAKAMVTEMCLGEEDFQQLQAQEGVAITFCLKEFRGLLSFAESANLNLSIHFDAPGRPAIFTIKDSLLDGHFVLATLSDTDS
notes: GAL4 DBD fusion (pM) in the two-hybrid assay; Flag-tagged (pCDNA3-Flag) in the AR N/C assay; also called N-terminus of hRad9
[5]
  binding result: no binding
